{
  "source": "paper PMC7865074",
  "data": [
    {"target": "full-length (FL) NS5 protein (wt PBM) of West Nile virus (West Nile virus)", "assay": "split reporter (BiFC, NanoBiT); N2H split-NanoLuc in HEK-293T cells; full-length NS5 with 91 full-length human PDZ proteins (ORFs); read-out NLR; hits NLR > 1.35", "values": [
      {"substance": "Connector enhancer of kinase suppressor of ras 3, full-length protein (ORF, N2H construct) (from UniProt Q6P9H4 1-555) (natural protein)", "NLR": 1.91},
      {"substance": "Rho GTPase-activating protein 21, full-length protein (ORF, N2H construct) (from UniProt Q5T5U3 1-1958) (natural protein)", "NLR": 4.4},
      {"substance": "SH3 and multiple ankyrin repeat domains protein 2, full-length protein (ORF, N2H construct) (from UniProt Q9UPX8 1-1849) (natural protein)", "NLR": 4.38}
    ]},
    {"target": "full-length (FL) NS5 protein (wt PBM) of West Nile virus (West Nile virus)", "assay": "split reporter (BiFC, NanoBiT); N2H split-NanoLuc in HEK-293T cells; full-length NS5 with 91 full-length human PDZ proteins (ORFs); read-out NLR; hits NLR > 1.35", "remark": "another data set of the same source", "values": [
      {"substance": "Rho GTPase-activating protein 21, full-length protein (ORF, N2H construct) (from UniProt Q5T5U3 1-1958) (natural protein)", "NLR": 4.41}
    ]},
    {"target": "full-length (FL) NS5 protein (wt PBM) of West Nile virus (West Nile virus)", "assay": "split reporter (BiFC, NanoBiT); N2H split-NanoLuc in HEK-293T cells; full-length NS5 with 257 single PDZ domains; read-out NLR with NS5 minus NLR with NS5ΔPBM, three experiments; hits > 0.25", "values": [
      {"substance": "Connector enhancer of kinase suppressor of ras 3, PDZ domain (N2H construct) (from UniProt Q6P9H4 211-293) (domain or fragment)", "NLR(NS5) - NLR(NS5ΔPBM)": 6.27},
      {"substance": "FERM and PDZ domain-containing protein 4, PDZ domain (N2H construct) (from UniProt Q14CM0 78-155) (domain or fragment)", "NLR(NS5) - NLR(NS5ΔPBM)": "< 0.25"},
      {"substance": "Golgi reassembly-stacking protein 2, PDZ domain (N2H construct) (domain or fragment)", "NLR(NS5) - NLR(NS5ΔPBM)": 1.32},
      {"substance": "Microtubule-associated serine/threonine-protein kinase 1, PDZ domain (N2H construct) (from UniProt Q9Y2H9 967-1055) (domain or fragment)", "NLR(NS5) - NLR(NS5ΔPBM)": "< 0.25"},
      {"substance": "Microtubule-associated serine/threonine-protein kinase 2, PDZ domain (N2H construct) (from UniProt Q6P0Q8 1104-1192) (domain or fragment)", "NLR(NS5) - NLR(NS5ΔPBM)": 0.87},
      {"substance": "Partitioning defective 3 homolog, PDZ domain 1 (N2H construct) (from UniProt Q8TEW0 271-359) (domain or fragment)", "NLR(NS5) - NLR(NS5ΔPBM)": 1.24},
      {"substance": "Protein scribble homolog, PDZ domain 1 (N2H construct) (from UniProt Q14160 728-815) (domain or fragment)", "NLR(NS5) - NLR(NS5ΔPBM)": 0.76},
      {"substance": "Protein scribble homolog, PDZ domain 4 (N2H construct) (from UniProt Q14160 1100-1194) (domain or fragment)", "NLR(NS5) - NLR(NS5ΔPBM)": 0.56},
      {"substance": "Serine protease HTRA1, PDZ domain (N2H construct) (from UniProt Q92743 365-467) (domain or fragment)", "NLR(NS5) - NLR(NS5ΔPBM)": "< 0.25"}
    ]},
    {"target": "biotinylated WNV NS5 PBM peptide (West Nile virus)", "assay": "holdup assay (automated high-throughput chromatography); biotinylated NS5 PBM peptide as bait against 259 human PDZ domains expressed in E. coli; read-out binding intensity (BI), mean of replicates; BI threshold 0.2 for a significant interaction", "values": [
      {"substance": "Golgi reassembly-stacking protein 2, PDZ domain (holdup construct) (domain or fragment)", "BI (holdup binding intensity)": "< 0.15"}
    ]}
  ]
}
